Reference: PMC9143577, “Cationic Geminoid Peptide Amphiphiles Inhibit DENV2 Protease, Furin, and Viral Replication” (Molecules, 2022)
The star is where a group is joined. Palmitoyl = CCCCCCCCCCCCCCCC(=O)*; NHhexadecyl = CCCCCCCCCCCCCCCCN*; AMC = Cc1cc(=O)oc2cc(N*)ccc12; Cbz = O=C(OCc1ccccc1)*

How the values were obtained:
[1] = target: DENV2 protease (NS2B-NS3 construct CF40-…-NS3) (dengue virus serotype 2)
human furin = human furin (Homo sapiens, UniProt P09958)
DENV2 protease = DENV2 protease (Dengue virus type 2, UniProt P14340); parameters: the vector with CF40 fused to NS3pro was used; hexahistidine (N); made in house; host or cells: E. coli strain SG13009; method as in PMID 17184724; conditions: ref [23], cited from earlier work
DENV2 protease, sequence (P14340 1476-1653): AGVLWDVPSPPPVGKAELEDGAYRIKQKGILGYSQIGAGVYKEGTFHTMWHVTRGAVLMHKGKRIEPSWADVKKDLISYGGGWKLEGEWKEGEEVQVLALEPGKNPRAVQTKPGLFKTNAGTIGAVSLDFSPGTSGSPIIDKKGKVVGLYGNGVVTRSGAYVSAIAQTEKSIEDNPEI
DENV2 protease, sequence (P14340 1398-1437): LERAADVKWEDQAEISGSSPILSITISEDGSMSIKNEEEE

human furin, sequence (P09958 27-794): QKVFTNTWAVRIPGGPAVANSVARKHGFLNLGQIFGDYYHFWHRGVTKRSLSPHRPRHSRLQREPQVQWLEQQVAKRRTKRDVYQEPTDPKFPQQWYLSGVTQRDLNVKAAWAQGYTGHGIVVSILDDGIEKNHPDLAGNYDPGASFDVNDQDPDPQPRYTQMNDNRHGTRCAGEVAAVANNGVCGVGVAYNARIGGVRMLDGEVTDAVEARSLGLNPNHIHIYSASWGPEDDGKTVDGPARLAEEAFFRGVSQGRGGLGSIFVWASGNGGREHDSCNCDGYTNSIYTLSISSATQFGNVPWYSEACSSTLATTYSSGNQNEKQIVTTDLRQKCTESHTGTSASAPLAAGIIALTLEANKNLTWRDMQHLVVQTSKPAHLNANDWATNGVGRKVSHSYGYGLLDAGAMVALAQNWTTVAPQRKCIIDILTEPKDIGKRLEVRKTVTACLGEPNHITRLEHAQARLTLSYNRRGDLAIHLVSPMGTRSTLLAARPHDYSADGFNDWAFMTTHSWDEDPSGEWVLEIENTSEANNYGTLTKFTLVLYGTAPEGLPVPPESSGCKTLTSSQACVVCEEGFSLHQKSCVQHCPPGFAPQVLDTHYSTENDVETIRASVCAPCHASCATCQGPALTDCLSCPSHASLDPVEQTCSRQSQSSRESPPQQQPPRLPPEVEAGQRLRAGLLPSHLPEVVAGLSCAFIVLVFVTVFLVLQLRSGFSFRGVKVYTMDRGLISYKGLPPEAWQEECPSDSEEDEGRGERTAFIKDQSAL

C15H31C(O)-Lys-(Ala)-Lys-NHC16H33 (C16-KAK-C16) (peptide)
IC50 of inhibition of DENV2 protease activity (20 nM enzyme, substrate Z-RR-MCA, 50 mM Tris.HCl pH 9.0, 20% glycerol, 37 °C) [1]: 0.66 µM | IC50 of inhibition of DENV2 protease activity (50 µM Tyr(3-NO2) substrate, 50 mM Tris.HCl pH 9.0, 10% ethylene glycol, 0.0016% Brij 58) [1]: 2.3 µM | IC50 of inhibition of trypsin activity (4 nM trypsin, 11.4 µM Z-FR-MCA, 100 mM Tris.HCl pH 8.0, 10 mM CaCl2) (trypsin): 17.2 µM | IC50 of inhibition of furin activity (0.76 nM furin, substrate Ac-RVRR-MCA, 10 mM MES pH 7.0, 37 °C) (human furin): 3.57 µM

C15H31C(O)-Lys-(Gly)-Lys-NHC16H33 (C16-KGK-C16) (peptide)
IC50 of inhibition of DENV2 protease activity (20 nM enzyme, substrate Z-RR-MCA, 50 mM Tris.HCl pH 9.0, 20% glycerol, 37 °C) [1]: 1.94 µM | IC50 of inhibition of DENV2 protease activity (50 µM Tyr(3-NO2) substrate, 50 mM Tris.HCl pH 9.0, 10% ethylene glycol, 0.0016% Brij 58) [1]: 2.1 µM | IC50 of inhibition of trypsin activity (4 nM trypsin, 11.4 µM Z-FR-MCA, 100 mM Tris.HCl pH 8.0, 10 mM CaCl2) (trypsin): 41 µM

C15H31C(O)-Lys-Lys-NHC16H33 (C16-KK-C16) (peptide)
IC50 of inhibition of DENV2 protease activity (20 nM enzyme, substrate Z-RR-MCA, 50 mM Tris.HCl pH 9.0, 20% glycerol, 37 °C) [1]: 4.25 µM | IC50 of inhibition of trypsin activity (4 nM trypsin, 11.4 µM Z-FR-MCA, 100 mM Tris.HCl pH 8.0, 10 mM CaCl2) (trypsin): 85.7 µM

Cbz-Arg-Arg-{AMC}
kcat for hydrolysis of the substrate (DENV2 protease): 0.11 s⁻¹ | Km (DENV2 protease; read-out: KM for hydrolysis of the substrate): 247 µM

B1: C15H31C(O)-Lys-(Ala)2-Lys-NHC16H33 (C16-KA2K-C16) (peptide)
peptide: Palmitoyl-KAAK-NHhexadecyl
SMILES: CCCCCCCCCCCCCCCCNC(=O)[C@H](CCCCN)NC(=O)[C@H](C)NC(=O)[C@H](C)NC(=O)[C@H](CCCCN)NC(=O)CCCCCCCCCCCCCCC
IC50 of inhibition of DENV2 protease activity (20 nM enzyme, substrate Z-RR-MCA, 50 mM Tris.HCl pH 9.0, 20% glycerol, 37 °C) [1]: 0.8 µM | IC50 of inhibition of DENV2 protease activity (50 µM Tyr(3-NO2) substrate, 50 mM Tris.HCl pH 9.0, 10% ethylene glycol, 0.0016% Brij 58) [1]: 1.4 µM | IC50 of inhibition of trypsin activity (4 nM trypsin, 11.4 µM Z-FR-MCA, 100 mM Tris.HCl pH 8.0, 10 mM CaCl2) (trypsin): 20.9 µM | IC50 of inhibition of furin activity (0.76 nM furin, substrate Ac-RVRR-MCA, 10 mM MES pH 7.0, 37 °C) (human furin): 2.14 µM

B2: C15H31C(O)-Lys-(Gly)2-Lys-NHC16H33 (C16-KG2K-C16) (peptide)
peptide: Palmitoyl-KGGK-NHhexadecyl
SMILES: CCCCCCCCCCCCCCCCNC(=O)[C@H](CCCCN)NC(=O)CNC(=O)CNC(=O)[C@H](CCCCN)NC(=O)CCCCCCCCCCCCCCC
IC50 of inhibition of DENV2 protease activity (20 nM enzyme, substrate Z-RR-MCA, 50 mM Tris.HCl pH 9.0, 20% glycerol, 37 °C) [1]: 3.69 µM | IC50 of inhibition of DENV2 protease activity (50 µM Tyr(3-NO2) substrate, 50 mM Tris.HCl pH 9.0, 10% ethylene glycol, 0.0016% Brij 58) [1]: 10.2 µM
